Results on one molecule are retold here after patent publication US7460961B2, “N-TRADD active site and uses thereof” (Genetics Institute, LLC, priority 2000, dated 2008).

In the assay the target is T1, C-TRAF2 (residues 262 to 501 of human TRAF2) (Homo sapiens, UniProt Q12933).
T1 construct: C-TRAF2 (residues 262-501) was purified and coupled to a sensor chip CM5; initiator Met added before residue 262 (N); 6xHis (C); made in house; host or cells: baculovirus in 'Tini' cells (insect cells), vector pAcSG2
T1 sequence (Q12933 262-501): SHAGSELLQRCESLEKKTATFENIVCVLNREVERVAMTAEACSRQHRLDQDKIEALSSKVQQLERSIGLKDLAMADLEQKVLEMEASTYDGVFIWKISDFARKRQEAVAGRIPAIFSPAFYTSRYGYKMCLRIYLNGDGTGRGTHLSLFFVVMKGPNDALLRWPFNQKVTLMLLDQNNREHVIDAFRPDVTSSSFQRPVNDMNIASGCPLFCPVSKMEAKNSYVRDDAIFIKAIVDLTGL
As to the kind of experiment: BIAcore surface plasmon resonance binding to immobilised C-TRAF2. The conditions noted are these: C-TRAF2 coupled to CM5 chip, read-out: Kd of the interaction between N-TRADD and C-TRAF2. As to the method: C-TRAF2 and N-TRADD binding studies: The affinity of wild-type N-TRADD and C-TRAF2 was measured by surface plasma resonance using a BIAcore 2000 system (Pharmacia Biosensor AB). C-TRAF2 (residues 262-501) was purified and coupled to a sensor chip CM5 by amine coupling at pH=5.0 to get about 800, 1500 and 5500 response units on three different flow cells. A constant flow (20 μL/min) of purified N-TRADD protein in 10 mM Hepes, pH=7.4, 150 mM NaCl, 3.4 mM EDTA and 0.05% P20 surfactant at 8 different concentrations from 650 μM to 84 μM was applied over the protein coupled chip for 2 min to analyze the association. Binding constants were obtained from the BIAevaluation software.
The ^1H-^15N HSQC of N-TRADD was used as a tool to map the binding interface with C-TRAF2, since the chemical shifts of contact residues will be perturbed upon complex formation. […] The C-TRAF2 (residues 262-501) used in the instant HSQC titration experiment (at 120 μM) is also a trimer, as determined by size exclusion chromatography. […] N-TRADD Mutagenesis and interactions between C-TRAF2 and N-TRADD: In order to further characterize the amino acids in N-TRADD that are involved in C-TRAF2 recognition, site directed mutants of N-TRADD were prepared and evaluated for their ability to bind C-TRAF2. […]
The affinity of N-TRADD mutants to C-TRAF2 was measured by BIAcore. […]

B1: N-TRADD: N-terminal domain (amino acid residues 1-169, SEQ ID NO:1) of human TNFR-1 associated death domain protein (protein)
chain: MAAGQNGHEWVGSAYLFVESSLDKVVLSDAYAHPQQKVAVYRALQAALAESGGSPDVLQMLKIHRSDPQLIVQLRFCGRQPCGRFLRAYREGALRAALQRSLAAALAQHSVPLQLELRAGAERLDALLADEERCLSCILAQQPDRLRDEELAELEDALRNLKCGSGAR
For the molecule B1, the dissociation constant (Kd) is 6 µM.
